Patent publication US6989362B1, “Methods of treating dopamine dysregulation using agents that regulate phosphorylation/dephosphorylation in dopamine signaling” (The Rockefeller University, priority 1999, dated 2006)

Biological target: PKA (Homo sapiens, UniProt P17612)
Assay: Inhibition of PKA phosphorylation of substrates in vitro (kinetic analysis)
Type: biochemical
Protocol: Tissue was processed as described in the legend to FIGS. 1a-1e and immunoblotted for phospho-Thr75 (FIG. 2a), total DARPP-32 (FIG. 2b), or phospho-Thr34 (FIG. 2c). […] Purified DARPP-32 was phosphorylated to a stoichiometry of 0.93 mol/mol using native cdk1/cyclin B purified from sea star. Phospho-Thr75 DARPP-32 was precipitated from the reaction mixture with 5% TCA, resuspended in 1M Tris-HCl (pH 8.8), and dialyzed against 10 mM HEPES (pH 7.4). […] FIG. 2g depicts a Lineweaver-Burki kinetic analysis of PKA phosphorylation of ARPP-21 in the presence of 0 (◯), 5 (□), 10 (⋄), or 15 (Δ) μM Phospho-Thr75 DARPP-32.

B1: phospho-Thr75 DARPP-32: the phosphorylated form of Thr75 DARPP-32; inhibitor of PKA (protein, listed as Homo sapiens)
chain: MDPKDRKKIQFSVPAPPSQLDPRQVEMIRRRRPTPAMLFRLSEHSSPEEEASPHQRASGEGHHLKSKRPNPCAYTPPSLKAVQRIAESHLQSISNLNENQASEEEDELGELRELGYPREEDEEEEEDDEEEEEEEDSQAEVLKVIRQSAGQKTTRGLGLEGPWERPPPLDESERDGGSEDQVEDPALSEPGEEPQRPSPSEPGR
modifications: phosphorylated Thr75
For B1, the “rates of phosphorylation by PKA of inhibitor-1, ARPP-21, synapsin I and histone H1” value (15 μM phospho-Thr75 DARPP-32, purified catalytic subunit of PKA) was “dramatic reduction” and the “mechanism of PKA inhibition” value (ARPP-21 phosphorylation, 0-15 μM inhibitor) was “linear competitive single site mechanism”.
